Reference: IntAct's records for PubMed 37100772

B1: Nucleoprotein (Zaire ebolavirus (strain Mayinga-76)), P18272 (parent)
chain: MDSRPQKIWMAPSLTESDMDYHKILTAGLSVQQGIVRQRVIPVYQVNNLEEICQLIIQAFEAGVDFQESADSFLLMLCLHHAYQGDYKLFLESGAVKYLEGHGFRFEVKKRDGVKRLEELLPAVSSGKNIKRTLAAMPEEETTEANAGQFLSFASLFLPKLVVGEKACLEKVQRQIQVHAEQGLIQYPTAWQSVGHMMVIFRLMRTNFLIKFLLIHQGMHMVAGHDANDAVISNSVAQARFSGLLIVKTVLDHILQKTERGVRLHPLARTAKVKNEVNSFKAALSSLAKHGEYAPFARLLNLSGVNNLEHGLFPQLSAIALGVATAHGSTLAGVNVGEQYQQLREAATEAEKQLQQYAESRELDHLGLDDQEKKILMNFHQKKNEISFQQTNAMVTLRKERLAKLTEAITAASLPKTSGHYDDDDDIPFPGPINDDDNPGHQDDDPTDSQDTTIPDVVVDPDDGSYGEYQSYSENGMNAPDDLVLFDLDEDDEDTKPVPNRSTKGGQQKNSQKGQHIEGRQTQSRPIQNVPGPHRTIHHASAPLTDNDRRNEPSGSTSPRMLTPINEEADPLDDADDETSSLPPLESDDEEQDRDGTSNRTPTVAPPAPVYRDHSEKKELPQDEQQDQDHTQEARNQDSDNTQSEHSFEEMYRHILRSQGPFDAVLYYHMMKDEPVVFSTSDGKEYTYPDSLEEEYPPWLTEKEAMNEENRFVTLDGQQFYWPVMNHKNKFMAILQHHQ
B2: Nucleoprotein (Zaire ebolavirus (strain Mayinga-76)), P18272 (parent)
chain: B1 chain
partner: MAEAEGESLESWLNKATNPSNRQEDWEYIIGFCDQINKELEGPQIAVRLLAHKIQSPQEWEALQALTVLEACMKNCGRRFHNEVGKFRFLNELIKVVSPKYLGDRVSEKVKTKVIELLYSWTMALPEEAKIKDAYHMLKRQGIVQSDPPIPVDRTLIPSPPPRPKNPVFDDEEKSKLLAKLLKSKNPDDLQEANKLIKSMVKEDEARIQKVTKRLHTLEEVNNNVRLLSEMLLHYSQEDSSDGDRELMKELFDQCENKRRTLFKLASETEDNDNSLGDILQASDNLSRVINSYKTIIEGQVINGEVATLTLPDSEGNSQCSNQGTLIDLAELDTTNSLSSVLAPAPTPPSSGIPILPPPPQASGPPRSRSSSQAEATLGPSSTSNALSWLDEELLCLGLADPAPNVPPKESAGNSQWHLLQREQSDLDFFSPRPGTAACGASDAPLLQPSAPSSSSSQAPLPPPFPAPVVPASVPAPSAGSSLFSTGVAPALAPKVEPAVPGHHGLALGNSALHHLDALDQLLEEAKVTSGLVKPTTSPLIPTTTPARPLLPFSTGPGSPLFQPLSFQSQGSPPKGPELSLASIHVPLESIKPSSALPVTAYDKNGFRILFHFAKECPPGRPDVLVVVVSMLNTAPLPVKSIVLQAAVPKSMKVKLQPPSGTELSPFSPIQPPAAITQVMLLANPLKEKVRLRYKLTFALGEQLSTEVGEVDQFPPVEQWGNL

Variants of: B1
Settings: with ap2m1_human AP2M1, Q96CW1
ap2m1_human AP2M1, Q96CW1, sequence (Q96CW1 whole entry): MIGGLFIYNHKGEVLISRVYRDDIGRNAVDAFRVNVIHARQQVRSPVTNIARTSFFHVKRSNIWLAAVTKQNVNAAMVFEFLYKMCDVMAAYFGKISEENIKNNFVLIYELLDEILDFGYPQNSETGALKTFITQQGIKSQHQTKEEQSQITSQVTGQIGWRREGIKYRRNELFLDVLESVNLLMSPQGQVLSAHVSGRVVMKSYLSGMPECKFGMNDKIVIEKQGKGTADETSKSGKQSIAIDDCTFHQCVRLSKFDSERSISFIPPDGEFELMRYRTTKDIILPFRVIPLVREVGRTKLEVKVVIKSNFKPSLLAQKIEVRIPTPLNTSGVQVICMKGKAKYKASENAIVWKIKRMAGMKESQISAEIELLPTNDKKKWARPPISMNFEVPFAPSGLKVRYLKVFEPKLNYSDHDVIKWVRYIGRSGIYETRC

| Variant | effect of a mutation on the interaction |
| --- | --- |
| Y340A;L343A | with no effect |

Variants of: B2
Settings: with gga3_human GGA3, Q9NZ52

| Variant | effect of a mutation on the interaction |
| --- | --- |
| Y469A | disrupting interaction strength |
